Experimental data taken from paper PMC5694352.

Assays:
Assay in all cases: BLI
[1] = molecular target: High mannose (Man8-Man12) glycoform of human IgG3 Fc (human)
[2] = molecular target: Man5-IgG3 Fc (human IgG3 Fc with the GlcNAc2Man5 glycoform) (human)
[3] = molecular target: GlcNAc-IgG3 Fc (human IgG3 Fc with a single GlcNAc at N297) (human)

Question: Which Kd [1] does the source give for “Fcγ receptor IIIA, high affinity polymorph (V158)” here?
Answer: 0.0414 µM

Question: What about the koff [1] of the same substance?
Answer: 0.0065 s⁻¹

Question: And the kon [1]?
Answer: 160000 M⁻¹ s⁻¹

Question: And the Kd [2]?
Answer: 0.0465 µM

Question: What about the Kd [3] of the same substance?
Answer: 0.506 µM

Question: What about the koff [3] of the same substance?
Answer: 0.0858 s⁻¹

Question: And the kon [3]?
Answer: 170000 M⁻¹ s⁻¹
